# In PMC8376246, “Analysis of the mechanosensor channel functionality of TACAN” (eLife, 2021):
# Substitutions are numbered along the chain they refer to. Names and notes keep the numbering of the source.
# B1: Mus musculus full-length TMEM120A (TACAN, residues 1–343), wild type (natural protein, UniProt Q8C1E7 1-343, looked up)
# chain: MQSPPPDPLGDCLRNWEDLQQDFQGIQETHRLYRLKLEELTKLQANCTNSITRQKKRLQELALVLKKCRPSLPSESMEAAQELENQMKERQGLFFDMEAYLPKKNGLYLSLVLGNVNVTLLSKQAKFAYKDEYEKFKLYLTIILIVISFTCRFLLNSRVTDAAFNFLLVWYYCTLTIRESILINNGSRIKGWWVFHHYVSTFLSGVMLTWPDGLMYQKFRNQFLSFSMYQSFVQFLQYYYQSGCLYRLRALGERHTMDLTVEGFQSWMWRGLTFLLPFLFFGHFWQLFNALTLFNLARDPECKEWQVLMCGFPFLLLFLGNFFTTLRVVHQKFHSQQHGNKKD
# notes: TMEM120A (TACAN), Mus musculus, full length, residues 1-343; the model of the structure holds residues 9-72, 76-250 and 262-335; A PreScission protease site lies between TACAN and the C-terminal eGFP; residues of the cut site probably stay on the C-terminus (surmised; expected monomer mass printed as 41,770 Da); Synthetic gene (GeneWiz); also called TACAN^WT; M. musculus TACAN; source: HEK293S …
# B2: Mus musculus TACAN (TMEM120A) His196Ala, His197Ala mutant (natural protein, UniProt Q8C1E7 1-343, looked up)
# chain: B1 chain with H196A, H197A
# notes: TMEM120A (TACAN), Mus musculus, full length, residues 1-343, with H196A and H197A; the model of the structure holds residues 9-72, 76-250 and 262-335; Same construct as m1 with the two mutations; co-purified with coenzyme A (small molecule); Expected monomer mass printed as 41,637 Da; also called TACAN^(H196A H197A); His196Ala His197Ala mutant TACAN; source: HEK293S GnTI- cells, BacMam …
# Target: the molecule itself
# Assay: cryo-EM structure; single-particle cryo-EM; purified protein at 6–7 mg/mL in digitonin, mixed with 2.9 mM FFC8; refined with C2 symmetry
Protein,stoichiometry N,binding result
B1,2,–
B2,–,binds
